Test results taken from publication PMC7954978.

Target: GltPh-XL2 (cysteine-less GltPh with L152C and G351C) (UniProt O59010)
Test: cryo-EM structure

Substance: GltPh-XL2 (cysteine-less GltPh with L152C and G351C) (from UniProt O59010 1-417) (natural protein)
- stoichiometry N: 3
